Laboratory results taken from the RNAGym collection of RNA variant scans (doi:10.7554/elife.90254).

B1: LINE1-full (parent)
chain: UACGUAGGUGGUUUUCCCCUGAUAGUGCUAAGGGGGCCUGGAAGUUUGGACUGGGCAGAGCUCAACACAGCGUGGCAAAGUGGCUGUGGCUAGACUGCCUCUCUGGAUUCCUCGUCACUCAGCAGGGCAUCUCUGAGAGAAAUGCC

Variants of: B1
Assay: self-cleavage, relative activity (ratio to wild type); higher = more cleavage; in vitro, sequencing; the parent is a self-cleaving ribozyme

| Variant | self-cleavage |
| --- | --- |
| U62A U81C | 0.04 |
| A69G C111U | 0.47 |
| A22G A77C | 1.09 |
| A30G G35A | 1.11 |
| U20C U112G | 0.54 |
| U20C G54U | 0.91 |
| G34U | 1.43 |
| U5C U20C | 1.09 |
| A57G A129C | 1.33 |
| G49A U62C | 0.03 |
| G97U A138U | 0.11 |
| A121G A140C | 1.93 |
| A69U U109C | 0.06 |
| U52C A92C | 0 |
| U100A A117U | 1.01 |
| U15G U108C | 1.06 |
| C103U A136G | 1.39 |
| U26A C28U | 0.99 |
| A67G C118A | 0.58 |
| G10A U134C | 1.5 |
| A22U U108C | 1.19 |

| Variant | self-cleavage |
| --- | --- |
| C123U A142G | 1.32 |
| U102A U143C | 1.25 |
| U5A A94U | 0.32 |
| C76U A94C | 0.11 |
| U14A A94U | 0.13 |
| U62G A138G | 0.09 |
| G33C C128U | 0.92 |
| C61A A129U | 0.03 |
| U39C U112C | 1.24 |
| G60A A117G | 0.11 |
| A107G G126A | 1.71 |
| G7U U73A | 1.14 |
| U47C U119C | 1.48 |
| U104A U108C | 1.14 |
| U39C G126A | 1.18 |
| U47C | 1.47 |
| U62C U143A | 0.06 |
| G32A A92U | 0.75 |
| A2C U102C | 1.65 |
| A59G U81C | 0.09 |
| U15A G127U | 1.87 |

| Variant | self-cleavage |
| --- | --- |
| G54A A94G | 0.15 |
| U47A A57U | 0.08 |
| G36C G74U | 1.21 |
| A129G A140C | 0.74 |
| U62A G72C | 0.03 |
| A42G A94U | 0.21 |
| C37G U96G | 0.07 |
| A69G C146A | 0.77 |
| U12C C120A | 1.47 |
| G93A U112C | 0.06 |
| U26C C101U | 1.46 |
| U47A U108C | 1.22 |
| A24C A67G | 0.42 |
| U13A U100C | 1.28 |
| U12A U23A | 1.58 |
| A129G C145G | 1.65 |
| U112C A121G | 1.71 |
| A92G | 0.1 |
| U5C U39C | 1.05 |
| A6G A65G | 0.09 |
| G53A A142G | 1.3 |

| Variant | self-cleavage |
| --- | --- |
| G70A G80A | 0.48 |
| U45A A121C | 1.62 |
| U26C G144A | 1.02 |
| U73A C111U | 1.54 |
| U14C G27A | 1.15 |
| U1C C19U | 0.66 |
| U26C G105U | 1.57 |
| U1C A124G | 0.75 |
| C19A U85G | 0.13 |
| C51U A117C | 1.28 |
| G34C A140G | 1.38 |
| A57C U91C | 0 |
| A77G G83A | 1.75 |
| U29C A30U | 1.23 |
| U9A A50U | 0.45 |
| U5C U9C | 1.28 |
| A30G A42U | 1.06 |
| A64C U143C | 0.35 |
| A43G A117U | 1.93 |
| G44A A121G | 1.21 |
